The values below come from publication PMC9811221 (The Journal of Biological Chemistry, 2022).

Holding throughout (conditions): both partners purified
The target of assay [1] is T1, PD-L1 D1D2 (residues 18-237) (human, UniProt Q9NZQ7).
T1 construct: PD-L1 (programmed death-ligand 1, B7-H1, CD274), human, extracellular region D1D2, residues 18-237; also called extracellular region of PD-L1
The experiment in a line: BLI; biotinylated avitagged PD-1 (5 ug/ml) on streptavidin biosensors; 3 uM PD-L1 D1D2 alone or with 20 uM VHH; 25 C.

For the next assay, the target named is T2, PD-L2-Fc (Generon) (Homo sapiens (assumed), UniProt Q9BQ51).
T2 construct: PD-L2 (programmed cell death 1 ligand 2), extracellular region; No catalogue number printed; also called extracellular region of PD-L2 with a Fc tag; source: bought: Generon
The experiment in a line: BLI; PD-L2-Fc (2 ug/ml) on Protein G biosensors; VHHs at 10 uM; 25 C. For orientation: BLI is a label-free optical method that tracks binding on a fibre tip over time.

Assay [2] has as its target T3, PD-L1-Fc fusion protein (Homo sapiens, UniProt Q9NZQ7).
T3 construct: PD-L1 (programmed cell death 1 ligand 1, B7-H1, CD274) part of a bought PD-L1-Fc fusion protein; Probably the extracellular region; Held on Protein G biosensors by the Fc; also called programmed death-ligand 1; B7-H1; source: bought: Invitrogen
The assay can be described thus: BLI; PD-L1-Fc (5 ug/ml) loaded on Protein G biosensors, VHH in solution (10 uM to 0.3 nM); Octet QKe, 25 °C, PBS pH 7.4, 0.01% Tween-20, 0.1% BSA; steady-state analysis of the maximum responses, one-site specific-binding model in Prism 9.

In assay [3] the target is T3, PD-L1-Fc fusion protein. The experiment in a line: BLI; PD-L1-Fc (5 ug/ml) loaded on Protein G biosensors, VHH in solution (10 uM to 0.3 nM); Octet QKe, 25 °C, PBS pH 7.4, 0.01% Tween-20, 0.1% BSA; kinetic analysis, global model 'association kinetics' in Prism 9.
For assay [4], the target named is T4, PD-L1 D1 (residues 18-134) (human, UniProt Q9NZQ7 18-134).
T4 construct: PD-L1 (programmed death-ligand 1, B7-H1, CD274), human, IgV-like domain D1, residues 18-134; Uniformly 15N/13C labelled for NMR; the sentence on constructs can be read as giving a C-terminal avitag to this construct too; also called PD-L D1
The experiment in a line: NMR titration; chemical shift perturbation (minimal shift) mapping: labelled PD-L1 D1 free and with a 60% molar excess of CD80; 15N/1H TROSY; 25 C; 25 mM KH2PO4 pH 7.4, 25 mM NaCl, 10 uM EDTA.

T1 sequence (Q9NZQ7 18-237): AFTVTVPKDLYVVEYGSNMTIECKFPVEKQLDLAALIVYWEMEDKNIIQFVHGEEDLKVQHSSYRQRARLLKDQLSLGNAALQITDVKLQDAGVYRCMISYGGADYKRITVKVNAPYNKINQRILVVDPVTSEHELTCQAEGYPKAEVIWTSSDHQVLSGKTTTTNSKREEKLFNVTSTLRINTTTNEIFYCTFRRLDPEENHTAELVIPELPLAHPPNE
T3 sequence (Q9NZQ7 19-238): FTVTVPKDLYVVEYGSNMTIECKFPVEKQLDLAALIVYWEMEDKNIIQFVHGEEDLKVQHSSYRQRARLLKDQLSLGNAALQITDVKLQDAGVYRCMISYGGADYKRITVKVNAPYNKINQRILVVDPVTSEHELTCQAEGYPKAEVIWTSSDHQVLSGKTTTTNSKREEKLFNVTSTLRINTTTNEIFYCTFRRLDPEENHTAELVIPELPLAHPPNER
T2 sequence (Q9BQ51 20-220): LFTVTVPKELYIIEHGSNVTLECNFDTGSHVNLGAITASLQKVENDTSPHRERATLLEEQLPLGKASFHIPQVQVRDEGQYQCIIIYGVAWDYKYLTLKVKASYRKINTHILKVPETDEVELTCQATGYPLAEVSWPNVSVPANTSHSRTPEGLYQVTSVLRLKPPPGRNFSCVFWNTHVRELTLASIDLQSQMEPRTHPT
T4 sequence (Q9NZQ7 18-134): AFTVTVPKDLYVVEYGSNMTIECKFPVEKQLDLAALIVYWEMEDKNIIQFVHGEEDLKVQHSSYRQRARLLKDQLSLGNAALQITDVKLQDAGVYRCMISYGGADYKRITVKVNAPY

B1: VHH13 (VHH)
VHH: EVQLVESGGGLVQPGGSLRLSCAASGSTFSINAMGWYRQAPGKQRELVAAISSGGSTNYADSVKGRFTISRDNAKNTVYLQMNSLKPEDTAVYYCNTINIGTFISLGGSPLGSWGQGTQVTVSS
notes: TEV-cleavable tag
On to B1, for which, in assay [1], the “percent inhibition of PD-L1 D1D2 binding to PD-1 at 20 uM VHH” value (“percent inhibition of PD-L1 D1D2 binding” below) is > 90%. Moreover, in the assay with PD-L2-Fc (Generon), the binding result is given as “no binding (tested: 10 μM)”.

B2: VHH15 (VHH)
VHH: EVQLVESGGGLVQAGGSLRLSCAASGRTSSIYVMAWFRQAPGKERELVAAISTSGNTVYPNSVKGRFTISRDNAKSTVYLQMNSLKPEDTAVYFCNADRTTYSSGRYSSQDYWGQGTQVTVSS
notes: TEV-cleavable tag
Consider B2, for which the “percent inhibition of PD-L1 D1D2 binding” value in assay [1] was > 90%. The binding result with PD-L2-Fc (Generon) is listed as “no binding (tested: 10 μM)”.

B3: VHH15 (VHH)
VHH: EVQLVESGGGLVQAGGSLRLSCAASGRTSSIYVMAWFRQAPGKERELVAAISTSGNTVYPNSVKGRFTISRDNAKSTVYLQMNSLKPEDTAVYFCNADRTTYSSGRYSSQDYWGQGTQVTVSS
notes: The His6 tag is TEV-cleavable; also called anti-PD-L1 VHH 15
By Kd is commonly meant a measure of binding affinity in units of concentration. Molecule B3 yielded a Kd with PD-L1-Fc fusion protein [2] of 9.2 nM.

B4: VHH19 (VHH)
VHH: EVQLVESGGGSVQAGASLRLSCAASGFPFSHYAIGWFRQAPGKEREFVTSIDRSGINTYYADSVKGRFTISRDNAKNAVSLQMNSLKPDDTAVYYCAAGPRLVTSPELYPYWGQGTQVTVSS
notes: TEV-cleavable tag
As to B4, the “percent inhibition of PD-L1 D1D2 binding” value in assay [1] is > 90%. Further, in the assay with PD-L2-Fc (Generon), the binding result was “no binding (tested: 10 μM)”.

B5: VHH22 (VHH)
VHH: EVQLVESGGGLVQAGGSLKLSCAASGRTFSGNTMGWFRQAPGKERELVTVVSSGGSTYYSDSVKGRFTISRDNALNTVYLQMNSLKPEDTAVYYCAAASLISGLTTTRRLFDYWGQGTQVTVSS
notes: TEV-cleavable tag
As to B5, the “percent inhibition of PD-L1 D1D2 binding” value in assay [1] was > 90%. Moreover, the binding result with PD-L2-Fc (Generon) is given as “no binding (tested: 10 μM)”.

B6: VHH4 (VHH)
VHH: EVQLVESGGGLVQAGDSLRLSCTASGRNFIIYTLAWFRQAPGKEREFVAGISWSGGSTKYADPVKGRFTISRDNAKNTVYLQMNSLHSDDTGVYYCGAQRGATIDLKYGMESWGKGTQVTVSS
notes: TEV-cleavable tag
As for B6, the “percent inhibition of PD-L1 D1D2 binding” value in assay [1] is > 90%. Besides, in the assay with PD-L2-Fc (Generon), the binding result was “no binding (tested: 10 μM)”.

B7: VHH4 (VHH)
VHH: EVQLVESGGGLVQAGDSLRLSCTASGRNFIIYTLAWFRQAPGKEREFVAGISWSGGSTKYADPVKGRFTISRDNAKNTVYLQMNSLHSDDTGVYYCGAQRGATIDLKYGMESWGKGTQVTVSS
notes: The His6 tag is TEV-cleavable; also called anti-PD-L1 VHH 4
As usually defined, the koff is the first-order rate constant of dissociation. A higher koff goes with a short-lived complex. A word on the kon: it is the second-order rate constant of association. A higher kon goes with faster complex formation. In the assay with PD-L1-Fc fusion protein [2], B7 yielded a Kd of 59 nM. In the assay with PD-L1-Fc fusion protein [3], the affinity, expressed as Kd, was 48 nM; the koff came to 0.029 s⁻¹; the kon amounted to 590000 M⁻¹ s⁻¹.

B8: VHH14 (VHH)
VHH: EVQLVESGGGLVQAGDSLRLSCTASARTFIKYAMGWFRQAPGKEREFVAAISWSGSRTTYADSVKGRFTISRDNDKNTVYLQMNTLEPEDTAIYYCAKAKGGYHSSQYDYDYWGQGTQVTVSS
notes: TEV-cleavable tag
With B8, in assay [1], the “percent inhibition of PD-L1 D1D2 binding” value was > 90%. Also, the binding result with PD-L2-Fc (Generon) is listed as “no binding (tested: 10 μM)”.

B9: VHH20 (VHH)
VHH: EVQLVESGGGSVQAGGSLRLSCVASGIAFSESPMAWYRQAPGRQREFVADVSADNKPYYRDTLKGRFTISRDNDKNSVYLQMNFLQPEDTAVYYCNALLLEAGTIKNYWGQGTQVTVSS
notes: TEV-cleavable tag
B9: in assay [1], the “percent inhibition of PD-L1 D1D2 binding” value is > 90%. Besides, the binding result with PD-L2-Fc (Generon) was “no binding (tested: 10 μM)”.

B10: VHH16 (VHH)
VHH: QVQLVESGGGWVQTGGSLRLSCAASGSTFDIKRMAWYRQAPGKEREFVADIWSEGSTHYADSVKGRFTISRDSAKNTMYLQMNSLKPEDTAAYYCNVGNTWGQGTQVTVSS
notes: TEV-cleavable tag; CDR 1 and 2 identical to VHH18, CDR 3 distinct
In the case of B10, the “percent inhibition of PD-L1 D1D2 binding” value in assay [1] was > 90%. For the same molecule, the binding result with PD-L2-Fc (Generon) is recorded as “no binding (tested: 10 μM)”.

B11: VHH2 (VHH)
VHH: QVQLVESGGGSVQPGGSLRLSCAASGSIVGHAVQAWYRQAPGKQRDLVAQLFDNGKTNIADSVKGRFTISGDNAKNTFYLQMNNLKPEDTAIYYCAILILPSMGVPPNIYEGQGTQVTVSS
notes: TEV-cleavable tag; source: E. coli BL21(DE3), purified (Ni-NTA, gel filtration)
With B11, the “percent inhibition of PD-L1 D1D2 binding” value in assay [1] is > 90%. Further, in the assay with PD-L2-Fc (Generon), the binding result is on record as “no binding (tested: 10 μM)”.

B12: extracellular region of CD80 (residues 35-235) (domain or fragment, human, UniProt P33681 35-235, looked up)
chain: VIHVTKEVKEVATLSCGHNVSVEELAQTRIYWQKEKKMVLTMMSGDMNIWPEYKNRTIFDITNNLSIVILALRPSDEGTYECVVLKYEKDAFKREHLAEVTLSVKADFPTPSISDFEIPTSNIRRIICSTSGGFPEPHLSWLENGEELNAINTTVSQDPETELYAVSSKLDFNMTTNHSFMCLIKYGHLRVNQTFNWNTTK
notes: CD80 (Cluster of differentiation 80, B7-1), human; construct 1-235 with the native signal peptide; final purified protein holds residues 35 to 235 after signal peptide cleavage; Glycosylated form; also called B7-1; source: expiCHO cells with kifunensine, secreted, purified (Ni-NTA, gel filtration)
With B12, the binding result in assay [4] is “binds”.

B13: VHH17 (VHH)
VHH: EVQLVESGGGLVQAGGSLRLSCAASGRTFSAYAMGWFRQAPGKERELVAGISWSGGMTYYADSVKGRFTISRDNAKNMVYLQMNSLKAEDTAVYYCAGGFSAVVPDHPDEYHYWGQGTQVTVSS
notes: TEV-cleavable tag
Regarding B13, the “percent inhibition of PD-L1 D1D2 binding” value in assay [1] was > 90%. In addition, the binding result with PD-L2-Fc (Generon) is “no binding (tested: 10 μM)”.

B14: VHH21 (VHH)
VHH: EVQLVESGGGLVQTGGSLRLSCAASGRTFDSYFMGWFRQAPGKEREFVAAISGSGSLTSYEDGVKGRFTISRDNAKNTVSLQMTNLKPEDTAVYYCASCLSCAFINGRQVDSRYYNYWGQGTQVTVSS
notes: TEV-cleavable tag; Two cysteines within CDR 3 form an additional disulfide bond (confirmed by mass spectrometry)
Take B14: the “percent inhibition of PD-L1 D1D2 binding” value in assay [1] is > 90%. Moreover, in the assay with PD-L2-Fc (Generon), the binding result is “no binding (tested: 10 μM)”.

B15: VHH18 (VHH)
VHH: EVQLVESGGGWVQTGGSLRLSCAASGSTFDIKRMAWYRQAPGKEREFVADIWSEGSTHYADSVKGRFTISRDSAKNTMYLYMNSLKPEDTAVYYCNVEYVLRTYWGQGTQVTVSS
notes: TEV-cleavable tag; CDR 1 and 2 identical to VHH16, CDR 3 distinct
For the molecule B15, the “percent inhibition of PD-L1 D1D2 binding” value in assay [1] was > 90%. Moreover, the binding result with PD-L2-Fc (Generon) is “no binding (tested: 10 μM)”.

B16: VHH9 (VHH)
VHH: QVQLVESGGKLVQAGGSLRLSCAASGRSIVPYAMGWFRQAPGKEREFVAVIDWSGFRTYYADSVKGRFTISRDNAKNTVYLEMSSLKPEDTAVYYCAQAGYGLGYRIHANEYHYWGQGTQVTVSS
notes: TEV-cleavable tag; source: E. coli BL21(DE3), soluble, purified (Ni-NTA, gel filtration)
Take B16: in assay [1], the “percent inhibition of PD-L1 D1D2 binding” value was > 90%. Besides, in the assay with PD-L2-Fc (Generon), the binding result is listed as “no binding (tested: 10 μM)”.

B17: VHH9 (VHH)
VHH: QVQLVESGGKLVQAGGSLRLSCAASGRSIVPYAMGWFRQAPGKEREFVAVIDWSGFRTYYADSVKGRFTISRDNAKNTVYLEMSSLKPEDTAVYYCAQAGYGLGYRIHANEYHYWGQGTQVTVSS
notes: The His6 tag is TEV-cleavable; also called anti-PD-L1 VHH 9; source: E. coli BL21(DE3), soluble expression, purified (Ni-NTA, gel filtration)
For the molecule B17, in the assay with PD-L1-Fc fusion protein [2], binding was characterised by a dissociation constant (Kd) of 0.7 nM.

B18: VHH10 (VHH)
VHH: EVQLVESGGGLVQAGDSLRLSCAASGRAFSGYAMAWFRQAPEKEREFVAAITWRGGTPYYAVRAKGRFTISRDSAKNTAYLEVNSLKPEDTATYYCAAPSLQVATMDVKDYAYWGQGTLVTVSS
notes: TEV-cleavable tag
Regarding B18, in assay [1], the “percent inhibition of PD-L1 D1D2 binding” value was > 90%. Further, the binding result with PD-L2-Fc (Generon) is “no binding (tested: 10 μM)”.
